# Results from patent US20170190753A1 (LABORATOIRE FRANCAIS DU FRACTIONNEMENT ET DES …, published 2017).
# B1: pCEP4-1NT9-10CT20 (other)
# chain: EDCNELPPRRNTEILTGSWSDQTYPEGTQAIYKCRPGYRSLGNVIMVCRKGEWVALNPLRKCQKRPCGHPGDTPFGTFTLTGGNVFEYGVKAVYTCNEGYQLLGEINYRECDTDGWTNDIPICEVVKCLPVTAPENGKIVSSAMEPDREYHFGQAVRFVCNSGYKIEGDEEMHCSDDGFWSKEKPKCVEISCKSPDVINGSPISQKIIYKENERFQYKCNMGYEYSERGDAVCTESGWRPLPSCEEKSCDNPYIPNGDYSPLRIKHRTGDEITYQCRNGFYPATRGNTAKCTSTGWIPAPRCTLKPCDYPDIKHGGLYHENMRRPYFPVAVGKYYSYYCDEHFETPSGSYWDHIHCTQDGWSPAVPCLRKCYFPYLENGYNQNYGRKFVQGKSIDVACHPGYALPKAQTTVTCMENGWSPTPRCIRVKTCSKSSIDIENGFISESQYTYALKEKAKYQCKLGYVTADGETSGSITCGKDGWSAQPTCIKSCDIPVFMNARTKNDFTWFKLNDTLDYECHDGYESNTGSTTGSIVCGYNGWSDLPICYEREGASGCELPKIDVHLVPDRKKDQYKVGEVLKFSCKPGFTIVGPNSVQCYHFGLSPDLPICKEQVQSCGPPPELLNGNVKEKTKEEYGHSEVVEYYCNPRFLMKGPNKIQCVDGEWTTLPVCIVEESTCGDIPELEHGWAQLSSPPYYYGDSVEFNCSESFTMIGHRSITCIHGVWTQLPQCVAIDKLKKCKSSNLIILEEHLKNKKEFDHNSNIRYRCRGKEGWIHTVCINGRWDPEVNCSMAQIQLCPPPPQIPNSHNMTTTLNYRDGEKVSVLCQENYLIQEGEEITCKDGRWQSIPLCVEKIPCSQPPQIEHGTINSSRSSQESYAHGTKLSYTCEGGFRISEENETTCYMGKWSSPPQCEGLPCKSPPEISHGVVAHMSDSYQYGEEVTYKCFEGFGIDGPAIAKCLGEKWSHPPSCIKTDCLSLPSFENAIPMGEKKDVYKAGEQVTYTCATYYKMDGASNVTCINSRWTGRPTCRDTSCVNPPTVQNAYIVSRQMSKYPSGERVRYQCRSPYEMFGDEEVMCLNGNWTEPPQCKDSTGKCGPPPPIDNGDITSFPLSVYAPASSVEYQCQNLYQLEGNKRITCRNGQWSEPPKCLHPCVISREIMENYNIALRWTAKQKLYSRTGESVEFVCKRGYRLSSRSHTLRTTCWDGKLEYPTCAKRGGSGHHHHHH
# B2: pCEP4-1NT9-14CT20 (other)
# chain: EDCNELPPRRNTEILTGSWSDQTYPEGTQAIYKCRPGYRSLGNVIMVCRKGEWVALNPLRKCQKRPCGHPGDTPFGTFTLTGGNVFEYGVKAVYTCNEGYQLLGEINYRECDTDGWTNDIPICEVVKCLPVTAPENGKIVSSAMEPDREYHFGQAVRFVCNSGYKIEGDEEMHCSDDGFWSKEKPKCVEISCKSPDVINGSPISQKIIYKENERFQYKCNMGYEYSERGDAVCTESGWRPLPSCEEKSCDNPYIPNGDYSPLRIKHRTGDEITYQCRNGFYPATRGNTAKCTSTGWIPAPRCTLKPCDYPDIKHGGLYHENMRRPYFPVAVGKYYSYYCDEHFETPSGSYWDHIHCTQDGWSPAVPCLRKCYFPYLENGYNQNYGRKFVQGKSIDVACHPGYALPKAQTTVTCMENGWSPTPRCIRVKTCSKSSIDIENGFISESQYTYALKEKAKYQCKLGYVTADGETSGSITCGKDGWSAQPTCIKSCDIPVFMNARTKNDFTWFKLNDTLDYECHDGYESNTGSTTGSIVCGYNGWSDLPICYEREGASGCPPPPQIPNSHNMTTTLNYRDGEKVSVLCQENYLIQEGEEITCKDGRWQSIPLCVEKIPCSQPPQIEHGTINSSRSSQESYAHGTKLSYTCEGGFRISEENETTCYMGKWSSPPQCEGLPCKSPPEISHGVVAHMSDSYQYGEEVTYKCFEGFGIDGPAIAKCLGEKWSHPPSCIKTDCLSLPSFENAIPMGEKKDVYKAGEQVTYTCATYYKMDGASNVTCINSRWTGRPTCRDTSCVNPPTVQNAYIVSRQMSKYPSGERVRYQCRSPYEMFGDEEVMCLNGNWTEPPQCKDSTGKCGPPPPIDNGDITSFPLSVYAPASSVEYQCQNLYQLEGNKRITCRNGQWSEPPKCLHPCVISREIMENYNIALRWTAKQKLYSRTGESVEFVCKRGYRLSSRSHTLRTTCWDGKLEYPTCAKRGGSGHHHHHH
# B3: pCEP4-1NT8-14CT20 (other)
# chain: EDCNELPPRRNTEILTGSWSDQTYPEGTQAIYKCRPGYRSLGNVIMVCRKGEWVALNPLRKCQKRPCGHPGDTPFGTFTLTGGNVFEYGVKAVYTCNEGYQLLGEINYRECDTDGWTNDIPICEVVKCLPVTAPENGKIVSSAMEPDREYHFGQAVRFVCNSGYKIEGDEEMHCSDDGFWSKEKPKCVEISCKSPDVINGSPISQKIIYKENERFQYKCNMGYEYSERGDAVCTESGWRPLPSCEEKSCDNPYIPNGDYSPLRIKHRTGDEITYQCRNGFYPATRGNTAKCTSTGWIPAPRCTLKPCDYPDIKHGGLYHENMRRPYFPVAVGKYYSYYCDEHFETPSGSYWDHIHCTQDGWSPAVPCLRKCYFPYLENGYNQNHGRKFVQGKSIDVACHPGYALPKAQTTVTCMENGWSPTPRCIRVKTCSKSSIDIENGFISESQYTYALKEKAKYQCKLGYVTADGETSGSITCGKDGWSAQPTCIKSGASGCPPPPQIPNSHNMTTTLNYRDGEKVSVLCQENYLIQEGEEITCKDGRWQSIPLCVEKIPCSQPPQIEHGTINSSRSSQESYAHGTKLSYTCEGGFRISEENETTCYMGKWSSPPQCEGLPCKSPPEISHGVVAHMSDSYQYGEEVTYKCFEGFGIDGPAIAKCLGEKWSHPPSCIKTDCLSLPSFENAIPMGEKKDVYKAGEQVTYTCATYYKMDGASNVTCINSRWTGRPTCRDTSCVNPPTVQNAYIVSRQMSKYPSGERVRYQCRSPYEMFGDEEVMCLNGNWTEPPQCKDSTGKCGPPPPIDNGDITSFPLSVYAPASSVEYQCQNLYQLEGNKRITCRNGQWSEPPKCLHPCVISREIMENYNIALRWTAKQKLYSRTGESVEFVCKRGYRLSSRSHTLRTTCWDGKLEYPTCAKRGGSGHHHHHH
# B4: pCEP4-1NT7-10CT20 (other)
# chain: EDCNELPPRRNTEILTGSWSDQTYPEGTQAIYKCRPGYRSLGNVIMVCRKGEWVALNPLRKCQKRPCGHPGDTPFGTFTLTGGNVFEYGVKAVYTCNEGYQLLGEINYRECDTDGWTNDIPICEVVKCLPVTAPENGKIVSSAMEPDREYHFGQAVRFVCNSGYKIEGDEEMHCSDDGFWSKEKPKCVEISCKSPDVINGSPISQKIIYKENERFQYKCNMGYEYSERGDAVCTESGWRPLPSCEEKSCDNPYIPNGDYSPLRIKHRTGDEITYQCRNGFYPATRGNTAKCTSTGWIPAPRCTLKPCDYPDIKHGGLYHENMRRPYFPVAVGKYYSYYCDEHFETPSGSYWDHIHCTQDGWSPAVPCLRKCYFPYLENGYNQNYGRKFVQGKSIDVACHPGYALPKAQTTVTCMENGWSPTPRCIRVKTGASGCELPKIDVHLVPDRKKDQYKVGEVLKFSCKPGFTIVGPNSVQCYHFGLSPDLPICKEQVQSCGPPPELLNGNVKEKTKEEYGHSEVVEYYCNPRFLMKGPNKIQCVDGEWTTLPVCIVEESTCGDIPELEHGWAQLSSPPYYYGDSVEFNCSESFTMIGHRSITCIHGVWTQLPQCVAIDKLKKCKSSNLIILEEHLKNKKEFDHNSNIRYRCRGKEGWIHTVCINGRWDPEVNCSMAQIQLCPPPPQIPNSHNMTTTLNYRDGEKVSVLCQENYLIQEGEEITCKDGRWQSIPLCVEKIPCSQPPQIEHGTINSSRSSQESYAHGTKLSYTCEGGFRISEENETTCYMGKWSSPPQCEGLPCKSPPEISHGVVAHMSDSYQYGEEVTYKCFEGFGIDGPAIAKCLGEKWSHPPSCIKTDCLSLPSFENAIPMGEKKDVYKAGEQVTYTCATYYKMDGASNVTCINSRWTGRPTCRDTSCVNPPTVQNAYIVSRQMSKYPSGERVRYQCRSPYEMFGDEEVMCLNGNWTEPPQCKDSTGKCGPPPPIDNGDITSFPLSVYAPASSVEYQCQNLYQLEGNKRITCRNGQWSEPPKCLHPCVISREIMENYNIALRWTAKQKLYSRTGESVEFVCKRGYRLSSRSHTLRTTCWDGKLEYPTCAKRGGSGHHHHHH
# B5: pCEP4-1NT10-11CT20 (other)
# chain: EDCNELPPRRNTEILTGSWSDQTYPEGTQAIYKCRPGYRSLGNVIMVCRKGEWVALNPLRKCQKRPCGHPGDTPFGTFTLTGGNVFEYGVKAVYTCNEGYQLLGEINYRECDTDGWTNDIPICEVVKCLPVTAPENGKIVSSAMEPDREYHFGQAVRFVCNSGYKIEGDEEMHCSDDGFWSKEKPKCVEISCKSPDVINGSPISQKIIYKENERFQYKCNMGYEYSERGDAVCTESGWRPLPSCEEKSCDNPYIPNGDYSPLRIKHRTGDEITYQCRNGFYPATRGNTAKCTSTGWIPAPRCTLKPCDYPDIKHGGLYHENMRRPYFPVAVGKYYSYYCDEHFETPSGSYWDHIHCTQDGWSPAVPCLRKCYFPYLENGYNQNHGRKFVQGKSIDVACHPGYALPKAQTTVTCMENGWSPTPRCIRVKTCSKSSIDIENGFISESQYTYALKEKAKYQCKLGYVTADGETSGSITCGKDGWSAQPTCIKSCDIPVFMNARTKNDFTWFKLNDTLDYECHDGYESNTGSTTGSIVCGYNGWSDLPICYERECELPKIDVHLVPDRKKDQYKVGEVLKFSCKPGFTIVGPNSVQCYHFGLSPDLPICKEQVQSGASGCGPPPELLNGNVKEKTKEEYGHSEVVEYYCNPRFLMKGPNKIQCVDGEWTTLPVCIVEESTCGDIPELEHGWAQLSSPPYYYGDSVEFNCSESFTMIGHRSITCIHGVWTQLPQCVAIDKLKKCKSSNLIILEEHLKNKKEFDHNSNIRYRCRGKEGWIHTVCINGRWDPEVNCSMAQIQLCPPPPQIPNSHNMTTTLNYRDGEKVSVLCQENYLIQEGEEITCKDGRWQSIPLCVEKIPCSQPPQIEHGTINSSRSSQESYAHGTKLSYTCEGGFRISEENETTCYMGKWSSPPQCEGLPCKSPPEISHGVVAHMSDSYQYGEEVTYKCFEGFGIDGPAIAKCLGEKWSHPPSCIKTDCLSLPSFENAIPMGEKKDVYKAGEQVTYTCATYYKMDGASNVTCINSRWTGRPTCRDTSCVNPPTVQNAYIVSRQMSKYPSGERVRYQCRSPYEMFGDEEVMCLNGNWTEPPQCKDSTGKCGPPPPIDNGDITSFPLSVYAPASSVEYQCQNLYQLEGNKRITCRNGQWSEPPKCLHPCVISREIMENYNIALRWTAKQKLYSRTGESVEFVCKRGYRLSSRSHTLRTTCWDGKLEYPTCAKRGGSGHHHHHH
# Target: C3 convertase complex (UniProt P01024 23-1663; P00751 260-764)
# Test: cell-based or functional assay
# Wherever C3 convertase activity % of the control is given: test concentration or dose not given here.
# Sequence of C3 convertase complex (P01024 23-1663, chain 1 of 2): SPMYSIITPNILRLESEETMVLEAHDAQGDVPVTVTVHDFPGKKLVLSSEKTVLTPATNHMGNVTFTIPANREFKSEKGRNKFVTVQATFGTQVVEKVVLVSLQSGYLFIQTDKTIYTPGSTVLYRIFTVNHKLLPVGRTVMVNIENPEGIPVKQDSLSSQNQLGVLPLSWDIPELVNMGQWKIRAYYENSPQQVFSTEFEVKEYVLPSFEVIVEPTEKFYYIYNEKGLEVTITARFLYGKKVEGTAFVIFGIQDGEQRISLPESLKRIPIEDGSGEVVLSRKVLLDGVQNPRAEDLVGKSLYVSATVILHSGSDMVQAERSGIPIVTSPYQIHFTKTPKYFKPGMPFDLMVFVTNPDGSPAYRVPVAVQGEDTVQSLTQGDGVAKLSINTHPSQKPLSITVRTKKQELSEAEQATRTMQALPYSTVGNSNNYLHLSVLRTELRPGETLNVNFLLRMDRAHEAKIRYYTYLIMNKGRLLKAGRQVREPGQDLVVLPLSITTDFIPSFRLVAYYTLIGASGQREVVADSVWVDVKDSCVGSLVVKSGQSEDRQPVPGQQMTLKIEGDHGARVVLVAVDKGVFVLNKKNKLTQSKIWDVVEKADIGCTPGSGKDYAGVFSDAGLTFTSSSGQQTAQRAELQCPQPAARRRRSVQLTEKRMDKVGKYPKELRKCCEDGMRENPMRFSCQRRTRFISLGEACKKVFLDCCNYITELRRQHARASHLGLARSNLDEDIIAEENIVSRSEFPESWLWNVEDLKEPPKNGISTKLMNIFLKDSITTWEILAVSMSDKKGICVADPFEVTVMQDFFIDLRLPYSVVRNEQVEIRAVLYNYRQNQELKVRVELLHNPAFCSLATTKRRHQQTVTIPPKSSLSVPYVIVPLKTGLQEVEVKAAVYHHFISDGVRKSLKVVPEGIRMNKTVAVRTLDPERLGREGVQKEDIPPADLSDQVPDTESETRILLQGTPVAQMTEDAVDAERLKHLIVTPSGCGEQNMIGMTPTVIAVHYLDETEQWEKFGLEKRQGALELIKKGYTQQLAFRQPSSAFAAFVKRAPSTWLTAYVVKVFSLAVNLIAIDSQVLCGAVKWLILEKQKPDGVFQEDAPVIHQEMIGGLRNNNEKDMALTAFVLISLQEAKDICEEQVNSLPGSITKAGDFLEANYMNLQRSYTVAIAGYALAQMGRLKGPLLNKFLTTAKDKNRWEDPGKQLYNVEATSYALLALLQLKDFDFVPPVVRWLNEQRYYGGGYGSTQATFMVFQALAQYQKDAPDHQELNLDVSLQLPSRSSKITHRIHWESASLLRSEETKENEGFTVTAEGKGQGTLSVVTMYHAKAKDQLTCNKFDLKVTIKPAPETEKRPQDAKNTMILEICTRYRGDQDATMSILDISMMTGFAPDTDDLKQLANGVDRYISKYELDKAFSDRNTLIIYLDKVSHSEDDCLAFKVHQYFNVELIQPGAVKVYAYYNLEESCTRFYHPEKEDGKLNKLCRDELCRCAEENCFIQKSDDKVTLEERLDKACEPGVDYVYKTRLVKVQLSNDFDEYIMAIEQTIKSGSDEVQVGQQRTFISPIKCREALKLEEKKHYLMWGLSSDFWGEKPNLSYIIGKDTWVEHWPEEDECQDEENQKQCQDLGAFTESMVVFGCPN
# Sequence of C3 convertase complex (P00751 260-764, chain 2 of 2): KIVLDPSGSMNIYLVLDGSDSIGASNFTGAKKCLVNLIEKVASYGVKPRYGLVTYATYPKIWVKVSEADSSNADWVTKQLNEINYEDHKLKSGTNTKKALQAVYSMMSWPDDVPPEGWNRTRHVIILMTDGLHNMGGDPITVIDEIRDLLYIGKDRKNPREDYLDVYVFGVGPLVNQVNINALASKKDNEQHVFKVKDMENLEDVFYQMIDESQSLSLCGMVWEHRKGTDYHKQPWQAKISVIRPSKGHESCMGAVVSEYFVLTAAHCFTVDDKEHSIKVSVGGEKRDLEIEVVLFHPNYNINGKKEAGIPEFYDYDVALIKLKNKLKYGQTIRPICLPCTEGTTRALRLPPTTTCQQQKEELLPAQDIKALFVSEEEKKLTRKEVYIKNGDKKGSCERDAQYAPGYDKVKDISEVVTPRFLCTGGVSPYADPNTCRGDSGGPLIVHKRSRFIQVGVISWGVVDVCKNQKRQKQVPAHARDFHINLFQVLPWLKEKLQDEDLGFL
Binder,C3 convertase activity % of the control,C3 convertase activity IC50
B1,64 % of the control,0.552 µg/mL
B2,64 % of the control,0.57 µg/mL
B3,61 % of the control,0.645 µg/mL
B4,59 % of the control,0.602 µg/mL
B5,58 % of the control,0.612 µg/mL
